One assay addresses T1, Human GLP-1 Receptor (Homo sapiens, UniProt P43220).
T1 construct: Full-length human glucagon-like peptide 1 receptor was stably expressed in CHO-K1 cells; expressed in transfected cells; host or cells: CHO-K1 (clone CHO-GLP1R-19)
Kind of assay: Cyclic AMP determination in CHO cells expressing human GLP-1 receptor. It is filed as cell-based. The conditions noted are these: for Emax: CHO, percent of maximal GLP-1 stimulated activity; for Emax / Mean Hill: human GLP-1 receptor. How it is done:
(§1) CHO-GLP-1R-19 cells (20,000 in 100 μl of media) were plated into each well of a 96-well tissue culture microtiter plate and incubated overnight in a 5% CO2 atmosphere at 37° C. On the day of the assay, cells were washed once with 100 μl of phosphate-buffered saline (PBS). A Biomek 2000 was used to serially dilute all peptides prior to beginning the assay. Serial dilutions were carried out in 100% DMSO.
(§2) 50 μl of each cAMP standard was added by hand and 70 μl of mix reagent (Amersham cAMP SPA kit) was added using the multidrop. […] This standard curve was used to convert CPM to pmol of cAMP.
(§3) Cell plates and peptide plates were loaded onto the Platemate. The media was aspirated from the wells and discarded. 100 uL per well of the peptide/buffer mixture were then added from the peptide plates to initiate the assay. After 30 min. of incubation the peptide/buffer was removed and 50 uL of the lysis reagent 1 solution was added per well. The plate was kept for one hour at RT or overnight if refrigerated and sealed.
(§4) Dose dependence for Compounds was determined at half-log concentrations in duplicate. […] A standard curve was determined using known amounts of cyclic AMP. […] The data were analyzed by nonlinear regression curve fitting (4 parameter sigmoidal dose-response curve) to determine the EC50 of the compounds.

Assay [1] deals with T2, Mouse GLP-1 Receptor (Mus musculus, UniProt O35659).
T2 construct: expressed in transfected cells; host or cells: CHO cells
T2 sequence (O35659 22-463): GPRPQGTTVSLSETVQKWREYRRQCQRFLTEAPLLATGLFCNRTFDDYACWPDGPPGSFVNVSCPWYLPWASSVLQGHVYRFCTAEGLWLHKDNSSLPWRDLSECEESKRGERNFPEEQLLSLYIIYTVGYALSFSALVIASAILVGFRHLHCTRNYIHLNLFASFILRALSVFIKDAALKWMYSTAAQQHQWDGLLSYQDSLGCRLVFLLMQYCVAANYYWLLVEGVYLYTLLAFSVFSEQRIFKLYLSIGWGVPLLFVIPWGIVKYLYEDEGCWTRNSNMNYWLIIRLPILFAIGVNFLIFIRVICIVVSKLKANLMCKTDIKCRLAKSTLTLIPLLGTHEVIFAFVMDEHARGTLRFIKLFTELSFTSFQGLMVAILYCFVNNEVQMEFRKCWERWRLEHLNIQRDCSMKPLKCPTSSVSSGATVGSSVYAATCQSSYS
Briefly: Stimulation of cAMP synthesis in CHO cells expressing mouse GLP-1 receptor. It is filed as cell-based. Particulars: for Emax: CHO, percent of maximal GLP-1 stimulated activity. How it is done: as §1, §2, §3, §4

For assay [2], the target named is Full-length human glucagon-like peptide 1 receptor (human, UniProt P43220 24-463). Briefly: cell-based or functional assay.
For assay [3], the target named is T3, Mouse GLP-1 Receptor (mouse, UniProt O35659 22-463).
T3 sequence (looked up): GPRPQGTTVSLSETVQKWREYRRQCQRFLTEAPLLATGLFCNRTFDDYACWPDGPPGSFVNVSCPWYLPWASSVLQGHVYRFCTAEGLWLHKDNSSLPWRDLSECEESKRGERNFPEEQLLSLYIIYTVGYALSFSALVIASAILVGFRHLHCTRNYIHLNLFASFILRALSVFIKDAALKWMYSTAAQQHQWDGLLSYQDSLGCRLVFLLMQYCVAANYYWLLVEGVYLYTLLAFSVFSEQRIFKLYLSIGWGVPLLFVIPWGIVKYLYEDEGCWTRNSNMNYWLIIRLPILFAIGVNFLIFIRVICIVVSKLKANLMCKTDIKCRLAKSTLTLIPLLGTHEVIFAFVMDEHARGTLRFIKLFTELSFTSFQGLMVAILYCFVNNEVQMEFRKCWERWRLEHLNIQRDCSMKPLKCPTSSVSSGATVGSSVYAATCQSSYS
Briefly: cell-based or functional assay.

*1 amine or outer side, *2 acyl side, *3 side chain or, on linkers, in order; H or OH if unused. Primed or numbered codes have the meaning given here. Where no end group is shown, it is not given here. [ ]: non-standard residue; d: D form. The star is where a group is joined. X1 = 4‑(2′-methylphenyl)‑3‑pyridylalanine, Cc1ccccc1-c1ccncc1C[C@H](N[*:1])C(=O)[*:2]; Bip(2′-Et-4′-OH-5′-I) = CCc1cc(O[*:3])c(I)cc1-c1ccc(C[C@H](N[*:1])C(=O)[*:2])cc1; Phe(4-(2-Et-4-HO-Ph)) = CCc1cc(O)ccc1-c1ccc(C[C@H](N)C(=O)O)cc1; IMeOp = 3-(1H-imidazol-4-yl)-2-methoxypropanoyl; αMePhe(2-F) = C[C@](N)(Cc1ccccc1F)C(=O)O; αMeP = C[C@@]1(C(=O)O)CCCN1; Moc = COC(=O)*

T1 sequence (P43220 24-463): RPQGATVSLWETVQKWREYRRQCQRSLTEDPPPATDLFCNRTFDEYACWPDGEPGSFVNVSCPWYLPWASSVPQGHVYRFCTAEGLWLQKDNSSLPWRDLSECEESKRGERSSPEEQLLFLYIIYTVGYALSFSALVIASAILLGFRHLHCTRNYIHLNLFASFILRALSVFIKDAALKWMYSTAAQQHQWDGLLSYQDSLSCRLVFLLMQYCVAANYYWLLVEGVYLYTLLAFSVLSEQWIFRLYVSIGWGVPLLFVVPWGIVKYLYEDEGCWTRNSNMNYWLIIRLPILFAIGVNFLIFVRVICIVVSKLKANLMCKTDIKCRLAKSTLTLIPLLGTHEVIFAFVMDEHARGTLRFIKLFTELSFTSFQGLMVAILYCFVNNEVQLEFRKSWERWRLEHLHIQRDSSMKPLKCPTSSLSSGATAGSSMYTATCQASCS

On to `CCc1cc(O)ccc1-c1ccc(C[C@H](NC(=O)[C@H](CC(=O)O)NC(=O)[C@H](CO)NC(=O)[C@@H](NC(=O)[C@](C)(Cc2ccccc2F)NC(=O)[C@@H](NC(=O)CNC(=O)[C@H](CCC(=O)O)NC(=O)[C@]2(C)CCCN2C(=O)C(Cc2c[nH]cn2)OC)[C@@H](C)O)[C@@H](C)O)C(=O)N[C@@H](Cc2ccc(-c3ccccc3C)nc2)C(N)=O)cc1` (single isomer, unassigned) [SEQ ID NO: 173], for which, at Human GLP-1 Receptor, the Emax amounted to 95.6% and the “Mean Hill” value worked out at 2.6. Further, at Mouse GLP-1 Receptor [1], the “Mean Hill” value amounted to 1.4 and the Emax came out at 99.7%.
On to `CCc1cc(O)ccc1-c1ccc(C[C@H](NC(=O)[C@H](CC(=O)O)NC(=O)[C@H](CO)NC(=O)[C@@H](NC(=O)[C@](C)(Cc2ccccc2F)NC(=O)[C@@H](NC(=O)CNC(=O)[C@H](CCC(=O)O)NC(=O)[C@]2(C)CCCN2C(=O)C(Cc2c[nH]cn2)OC)[C@@H](C)O)[C@@H](C)O)C(=O)N[C@@H](Cc2ccc(-c3ccccc3C)nc2)C(N)=O)cc1` (single isomer, unassigned) [SEQ ID NO: 174], for which the “Mean Hill” value at Human GLP-1 Receptor amounted to 2.7; at Mouse GLP-1 Receptor [1], 2.1.
Take `CCc1cc(O)ccc1-c1ccc(C[C@H](NC(=O)[C@H](CC(=O)O)NC(=O)[C@H](Cc2c[nH]cn2)NC(=O)[C@@H](NC(=O)[C@](C)(Cc2ccccc2F)NC(=O)[C@@H](NC(=O)CNC(=O)[C@H](CCC(=O)O)NC(=O)[C@]2(C)CCCN2C(=O)C(Cc2c[nH]cn2)OC)[C@@H](C)O)[C@@H](C)O)C(=O)N[C@@H](Cc2ccc(-c3ccccc3C)nc2)C(N)=O)cc1` (single isomer, unassigned) [SEQ ID NO: 175]: on Human GLP-1 Receptor, the Emax stood at 105% and the “Mean Hill” value is listed as 2.8. Besides, at Mouse GLP-1 Receptor [1], the “Mean Hill” value was 2.7 and the Emax was determined as 100%.
`CCc1cc(O)ccc1-c1ccc(C[C@H](NC(=O)[C@H](CC(=O)O)NC(=O)[C@H](Cc2c[nH]cn2)NC(=O)[C@@H](NC(=O)[C@](C)(Cc2ccccc2F)NC(=O)[C@@H](NC(=O)CNC(=O)[C@H](CCC(=O)O)NC(=O)[C@]2(C)CCCN2C(=O)C(Cc2c[nH]cn2)OC)[C@@H](C)O)[C@@H](C)O)C(=O)N[C@@H](Cc2ccc(-c3ccccc3C)nc2)C(N)=O)cc1` (single isomer, unassigned) [SEQ ID NO: 176]: the “Mean Hill” value is on record as 3.1 on Human GLP-1 Receptor and 1.9 at Mouse GLP-1 Receptor [1].
`CCc1cc(O)c(I)cc1-c1ccc(C[C@H](NC(=O)[C@H](CC(=O)O)NC(=O)[C@H](CO)NC(=O)[C@@H](NC(=O)C(C)(Cc2ccccc2F)NC(=O)[C@@H](NC(=O)CNC(=O)[C@H](CCC(=O)O)NC(=O)C2(C)CCCN2C(=O)[C@H](Cc2c[nH]cn2)NC(=O)OC)[C@@H](C)O)[C@@H](C)O)C(=O)N[C@@H](Cc2ccc(-c3ccccc3C)nc2)C(N)=O)cc1` (some centres unmarked) [SEQ ID NO: 164]: on Human GLP-1 Receptor, the EC50 amounted to 10 pM, the Emax was found to be 97.2% and the “Mean Hill” value stood at 1.5. On Mouse GLP-1 Receptor [1], the “Mean Hill” value came out at 2.7 and the Emax stood at 103%.

B1: Compound of SEQ ID NO: 173 (or 174)* (peptide)
peptide: [IMeOp][αMeP]EGT[αMePhe(2-F)]TSD[Phe(4-(2-Et-4-HO-Ph))][X1]-NH2
modifications: also: IMeOp configuration (R or S) not determined
Regarding B1, in assay [2], the “Mean EC50 (nM), stimulation of cAMP synthesis in CHO cells” value (shortened to “Mean EC50 (nM), stimulation”) came to 0.018 nM and the “Mean Emax (%), stimulation of cAMP synthesis in CHO cells” value (shortened to “Mean Emax (%), stimulation”) was 95.6%. In the assay with Mouse GLP-1 Receptor [3], the “Mean EC50 (nM), stimulation” value stood at 0.114 nM and the “Mean Emax (%), stimulation” value was found to be 99.7%.

B2: Compound of SEQ ID NO: 164 (peptide)
peptide: Moc-H[αMeP]EGT[αMePhe(2-F)]TSD[Bip(2′-Et-4′-OH-5′-I)][X1]-NH2
On to B2, for which the “Mean EC50 (nM), stimulation” value in assay [2] was found to be 0.01 nM; with Mouse GLP-1 Receptor [3], 0.055 nM. Also, the figures for the “Mean Emax (%), stimulation” value (in assay [2]; with Mouse GLP-1 Receptor [3]) were 97.2% and 103%, respectively.

B3: Compound of SEQ ID NO: 174 (or 173)* (peptide)
peptide: [IMeOp][αMeP]EGT[αMePhe(2-F)]TSD[Phe(4-(2-Et-4-HO-Ph))][X1]-NH2
modifications: also: IMeOp configuration (S or R) not determined
In the case of B3, in assay [2], the “Mean EC50 (nM), stimulation” value came to 0.024 nM and the “Mean Emax (%), stimulation” value came to 104%. Also, in the assay with Mouse GLP-1 Receptor [3], the “Mean EC50 (nM), stimulation” value stood at 0.273 nM and the “Mean Emax (%), stimulation” value is 105%.

B4: Compound of SEQ ID NO: 158 (peptide)
peptide: Moc-H[αMeP]EGT[αMePhe(2-F)]TSD[Phe(4-(2-Et-4-HO-Ph))][X1]-NH2
In the case of B4, in assay [2], the “Mean EC50 (nM), stimulation” value came out at 0.018 nM and the “Mean Emax (%), stimulation” value turned out to be 101%. For the same molecule, in the assay with Mouse GLP-1 Receptor [3], the “Mean EC50 (nM), stimulation” value is 0.191 nM and the “Mean Emax (%), stimulation” value was 101%.

B5: Compound of SEQ ID NO: 176 (or 175)* (peptide)
peptide: [IMeOp][αMeP]EGT[αMePhe(2-F)]THD[Phe(4-(2-Et-4-HO-Ph))][X1]-NH2
modifications: also: IMeOp configuration (S or R) not determined
B5: the “Mean EC50 (nM), stimulation” value came out at 0.03 nM in assay [2] and 0.126 nM with Mouse GLP-1 Receptor [3]. The “Mean Emax (%), stimulation” value in assay [2] came out at 95.8%; with Mouse GLP-1 Receptor [3], 105%.

B6: Compound of SEQ ID NO: 175 (or 176)* (peptide)
peptide: [IMeOp][αMeP]EGT[αMePhe(2-F)]THD[Phe(4-(2-Et-4-HO-Ph))][X1]-NH2
modifications: also: IMeOp configuration (R or S) not determined
Regarding B6, in assay [2], the “Mean EC50 (nM), stimulation” value stood at 0.03 nM and the “Mean Emax (%), stimulation” value worked out at 105%. In addition, in the assay with Mouse GLP-1 Receptor [3], the “Mean EC50 (nM), stimulation” value was 0.084 nM and the “Mean Emax (%), stimulation” value was 100%.

Values taken from patent publication US7960349B2 (Bristol-Myers Squibb Company, priority 2006, dated 2011).
